Test results from patent US20070031418A1 (published 2007).

B1: humanized anti-trkC agonist antibody A5 (antibody, V domains shown)
VH: QVQLVQSGAEVKKPGASVKVSCKASGYTFTSYRIHWVRQAPGQGLEWMGEIYPSNARTNYNEKFKSRVTMTRDTSTSTVYMELSSLRSEDTAVYYCARKYYYGNTRRSWYFDVWGQGTTVTVS
VL: DIQMTQSPSSLSASVGDRVTITCRASESIDNYGISFLAWYQQKPGKAPKLLIYAASNRGSGVPSRFSGSGSGTDFTFTISSLQPEDIATYYCQQSKTVPRTFGQGTKLEIKR

Tests used:
[1] = target: trkC receptor in stable trkC expressing CHO cells; assay: cell-based or functional assay
[2] = target: trkC receptor of embryonic rat trigeminal neurons (rat) (UniProt Q03351); assay: cell-based or functional assay
human trkC = target: T1, human trkC (human, UniProt Q16288 32-429, limits assumed); assay: BIAcore analysis (SPR); format not stated
T1 construct: also called htrkC

Chain of trkC receptor of embryonic rat trigeminal neurons (rat) (Q03351 32-864): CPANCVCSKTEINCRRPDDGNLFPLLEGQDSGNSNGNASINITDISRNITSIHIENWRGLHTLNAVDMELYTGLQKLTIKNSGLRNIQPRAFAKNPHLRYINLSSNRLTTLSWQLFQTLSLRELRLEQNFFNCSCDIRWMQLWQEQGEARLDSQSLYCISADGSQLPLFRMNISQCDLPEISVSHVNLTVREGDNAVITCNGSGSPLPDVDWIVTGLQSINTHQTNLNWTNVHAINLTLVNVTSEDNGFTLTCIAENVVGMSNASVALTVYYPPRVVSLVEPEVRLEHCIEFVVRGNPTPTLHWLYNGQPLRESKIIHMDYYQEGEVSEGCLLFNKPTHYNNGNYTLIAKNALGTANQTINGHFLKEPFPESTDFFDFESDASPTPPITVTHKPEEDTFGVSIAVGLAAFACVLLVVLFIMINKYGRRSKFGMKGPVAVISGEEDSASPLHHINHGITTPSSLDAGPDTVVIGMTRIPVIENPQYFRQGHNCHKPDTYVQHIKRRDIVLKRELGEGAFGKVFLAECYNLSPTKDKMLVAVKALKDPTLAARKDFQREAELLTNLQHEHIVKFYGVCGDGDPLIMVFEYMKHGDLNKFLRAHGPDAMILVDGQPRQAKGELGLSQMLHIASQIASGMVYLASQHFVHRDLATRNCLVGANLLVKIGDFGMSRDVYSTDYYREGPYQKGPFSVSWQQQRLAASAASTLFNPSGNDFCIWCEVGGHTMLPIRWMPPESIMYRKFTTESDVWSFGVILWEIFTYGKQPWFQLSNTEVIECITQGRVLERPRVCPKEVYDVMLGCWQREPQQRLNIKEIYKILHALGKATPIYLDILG

Molecule	trkC tyrosine phosphorylation, half maximum effective concentration (EC50) [1]	survival of embryonic rat trigeminal neuron cultures, EC50 [2]	Kd (human trkC)
NT3 (ligand)	1.09 nM	0.00073 nM	
B1			~0.28 nM
